Literature values, collected in publication PMC4254573.

Tests used:
[1] = biological target: EGFR ECD (Drosophila melanogaster) (UniProt P04412)
sEGFR ECD (Homo sapiens) = sEGFR ECD (Homo sapiens) (UniProt P00533)

Row | Kd [1] [µM] | Kd (sEGFR ECD (Homo sapiens)) [nM] | Substance
1 | 40 | – | EGFR ECD (from UniProt P04412)
2 | – | 1000 | sEGFR ECD (from UniProt P00533)
